Assays:
刺突S蛋白-鼠Fc融合蛋白 (S-mFc) = target: T1, 刺突S蛋白-鼠Fc融合蛋白 (S-mFc) (SARS-CoV-2; mouse, UniProt P0DTC2 14-1213); assay: FACS, blocking of S-mFc binding to 293T-ACE2 cells
T1 construct: domain: S蛋白全长区段

[1] = target: T2, SARS-CoV-2 S1蛋白 (ACRO Biosystems) (SARS-CoV-2, UniProt P0DTC2 16-685); assay: competition ELISA, S1 coated, HRP-hACE2-Fc as competitor
T2 construct: domain: S1

B1: 人源化抗体hS1B-30-3 (humanized antibody hS1B-30-3) (antibody, V domains shown)
VH: EVQLVESGGGLVQPGGSLRLSCAASGFTFSDAWMDWVRQAPGKGLDWVAQIRNKANSHATNYADSVKGRFTISRDDSKNSVYLQMNSLKTEDTAVYYCIRGLTGYVLDYWGQGTTVTVSS
VL: DIQMTQSPSSLSASVGDRVTITCKASQNVRTAVAWYQQKPGQSPKALIFLASNRHTGVPDRFSGSGSGTDFTLTISSLQPEDFATYFCLQHWNYPLTFGGGTKVEIKR
刺突S蛋白-鼠Fc融合蛋白 (S-mFc)
  IC50: 6.91 ng/mL
[1]
  EC50: 0.0331 µg/mL

Source: patent CN114106163A (ANYUAN MEDICINE SCIENCE AND TECH SHANGHAI LIMITED COMPANY, dated 2022)
